Molecular target: YoaA (6xHis);chi (DNA polymerase III clamp loader subunit) (Escherichia coli;Escherichia coli, UniProt P76257;P28905 1-636;1-147, |)
Test: fluorescein quenching titration; 0.5 mM ATPgS; rough estimate, no saturation; assay buffer B (composition not in the material) with 0.5 mM ATPgS, 50 nM DNA, YoaA-chi 0.1 nM-2 uM (Kd titration) or 1 uM; temperature and pH not given
Details: protein: recombinant;recombinant, 6xHis (His-YoaA);, copies: 1;1, label: fluorescein, 20 bp, other end blunt

Sequence of YoaA (6xHis);chi (DNA polymerase III clamp loader subunit) (P76257 whole entry, chain 1 of 2): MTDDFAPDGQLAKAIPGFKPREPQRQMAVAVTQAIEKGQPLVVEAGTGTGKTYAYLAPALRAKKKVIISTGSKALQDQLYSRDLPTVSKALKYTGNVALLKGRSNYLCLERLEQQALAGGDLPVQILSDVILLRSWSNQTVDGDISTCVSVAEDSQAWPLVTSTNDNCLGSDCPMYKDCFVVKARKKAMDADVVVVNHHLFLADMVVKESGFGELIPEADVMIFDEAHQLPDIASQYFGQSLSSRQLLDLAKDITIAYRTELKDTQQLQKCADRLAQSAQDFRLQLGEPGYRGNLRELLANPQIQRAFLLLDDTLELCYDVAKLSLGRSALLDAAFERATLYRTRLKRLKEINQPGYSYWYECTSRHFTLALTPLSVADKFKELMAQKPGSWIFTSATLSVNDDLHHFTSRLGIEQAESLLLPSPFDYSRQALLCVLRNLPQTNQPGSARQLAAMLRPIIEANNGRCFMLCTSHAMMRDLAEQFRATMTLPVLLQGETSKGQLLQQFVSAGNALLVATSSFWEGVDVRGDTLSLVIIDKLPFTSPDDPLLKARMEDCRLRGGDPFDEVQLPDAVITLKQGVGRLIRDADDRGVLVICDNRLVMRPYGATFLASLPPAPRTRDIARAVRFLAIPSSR
Sequence of YoaA (6xHis);chi (DNA polymerase III clamp loader subunit) (P28905 whole entry, chain 2 of 2): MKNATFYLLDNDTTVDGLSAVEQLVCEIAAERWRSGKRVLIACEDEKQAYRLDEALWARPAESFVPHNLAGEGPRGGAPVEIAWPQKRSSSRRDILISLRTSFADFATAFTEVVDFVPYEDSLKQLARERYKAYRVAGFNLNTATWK

Binder	Kd (fork: 35 nt 5' overhang on strand 1, 10 nt 3' overhang on strand 2) [nM]	Kd (35 nt 5' overhang on strand 1) [nM]
B3 forked duplex (S4 + S5) (dsDNA, fluorescein at T15 of strand 2 (printed F, written as T)) DNA 1: TTTTTTTTTTTTTTTTTTTTTTTTTTTTTTTTTTTATAAAAGGGACATTCTGGCC DNA 2: GGCCAGAATGTCCCTTTTATTACTGGTCGT	~328	–
B2 5' overhang duplex (S18 + S5) (dsDNA, fluorescein at T15 of strand 2 (printed F, written as T), 6 nt from junction) DNA 1: TTTTTTTTTTTTTTTTTTTTTTTTTTTTTTTTTTTATAAAAGGGACATTCTGGCC DNA 2: GGCCAGAATGTCCCTTTTAT	–	~350

Source: PMC9826845, “Characterization of the Escherichia coli XPD/Rad3 iron-sulfur helicase YoaA in complex with the DNA polymerase III clamp loader subunit chi (χ)”
